B1: affinity matured anti-CD16A scFv 3-LB3 (scFv)
scFv: EVQLVQSGAEVKKPGESLKVSCKASGYTFTSYYMHWVRQAPGQGLEWMGIINPSGGSTSYAQKFQGRVTMTRDTSTSTVYMELSSLRSEDTAVYYCARGSAYYYDFADYWGQGTLVTVSSGSASAPTLKLEEGEFSEARVSYELTQPLSESVAQGQTARITCGGNNIESRNVHWYQQKPGQAPVLVIYRDNNRPSGIPERFSGSNSGNMATLTISRAQAGDAADYYCQVWDNYTVLFGGGTKLTVLGQPKAAPSVTLFPPSAAAGSEQKLISEEDLNSHHHHHH
notes: IMAC-purified from pSKK2
B2: affinity matured anti-CD16A scFv 3-LB5 (scFv)
scFv: EVQLVQSGAEVKKPGESLKVSCKASGYTFTSYYMHWVRQAPGQGLEWMGIINPSGGSTSYAQKFQGRVTMTRDTSTSTVYMELSSLRSEDTAVYYCARGSAYYYDFADYWGQGTLVTVSSGSASAPTLKLEEGEFSEARVSYELTQPPSVAVAPGKTARITCGGNNIGSKNVHWYQQKPGQAPVLVIYRDSNRPSGIPERFSGSNSGNTATLTISRAQAGDEADFYCQVWDNYIVLFGGGTKLTVLGQPKAAPSVTLFPPSAAAGSEQKLISEEDLNSHHHHHH
notes: IMAC-purified from pSKK2; oligomeric state not analysed
B3: affinity matured anti-CD16A scFv 3-LS49 (scFv)
scFv: EVQLVQSGAEVKKPGESLKVSCKASGYTFTSYYMHWVRQAPGQGLEWMGIINPSGGSTSYAQKFQGRVTMTRDTSTSTVYMELSSLRSEDTAVYYCARGSAYYYDFADYWGQGTLVTVSSGSASAPTLKLEEGEFSEARVQPVLTQPLSVSVAPGQTARITCGGNNIGSKNVHWYQQKPGQAPVLVIYRDSSRPSGIPERLSGSNSGDTATLTISRAQAGDEADYYCQVWDDYIVVFGGGTKLTVLGQPKAAPPVTLFPPSAAAGSEQKLISEEDLNSHHHHHH
notes: IMAC-purified from pSKK2
B4: affinity matured anti-CD16A scFv 4-LS14 (scFv)
scFv: EVQLVQSGAEVKKPGESLKVSCKASGYTFTSYYMHWVRQAPGQGLEWMGIINPSGGSTSYAQKFQGRVTMTRDTSTSTVYMELSSLRSEDTAVYYCARGSAYYYDFADYWGQGTLVTVSSGSASAPTLKLEEGEFSEARVSYELTQPPSVSVTPGQTATITCGANDIGKRNVHWYQQRPGQSPVLVIYQDNKRPSGIPERFSGSNSGNTATLTISGTQAMDEADYYCQVWDNYSVLFGGGTKLTVLGQPKAAPSVTLFPPSAAAGSEQKLISEEDLNSHHHHHH
notes: IMAC-purified from pSKK2
B5: affinity matured anti-CD16A scFv 3-LB6 (scFv)
scFv: EVQLVQSGAEVKKPGESLKVSCKASGYTFTSYYMHWVRQAPGQGLEWMGIINPSGGSTSYAQKFQGRVTMTRDTSTSTVYMELSSLRSEDTAVYYCARGSAYYYDFADYWGQGTLVTVSSGSASAPTLKLEEGEFSEARVQAVLTQPPSVSVAPGQTARIPCEGNNIGSKNVHWYRQKPGQVPVLVMYDDSDRPSGIPERFSGSNSGNTATLTISGTQAMDEADYYCQVWDNYSVLFGGGTKLTVLGQPKAAPSVTLFPPSAAAGSEQKLISEEDLNSHHHHHH
notes: IMAC-purified from pSKK2

target: T1, human CD16A-Fc^48R/158V fusion protein (human, UniProt P08637 17-208, limits assumed); test: SPR, BIAcore 2000, CD16A-Fc immobilized on CM5, 1:1 Langmuir
T1 construct: Secreted soluble fusion made in HEK-293 cells; also called CD16-Fc; CD16A Fc-fusion protein; not shown: Fc portion of human IgG1
T1 sequence (P08637 17-208 L66R/F176V limits assumed): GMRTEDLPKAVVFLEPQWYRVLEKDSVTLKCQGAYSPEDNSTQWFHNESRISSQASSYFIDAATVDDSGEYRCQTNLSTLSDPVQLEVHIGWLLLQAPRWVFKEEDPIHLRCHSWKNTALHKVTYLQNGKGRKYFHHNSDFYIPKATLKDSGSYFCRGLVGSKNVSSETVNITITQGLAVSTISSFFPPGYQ
Protocol: (§1) The affinity constants (KD values) of the scFv were determined by SPR using the BIAcore 2000 biosensor system (Amersham-Pharmacia). The CD16A-Fc fusion protein and BSA used as a negative control were immobilized on the carboxymethyldextran-coated sensor chip CM5 using conventional NHS/EDC chemistry for the amine coupling procedure (BIAcore). Purified scFvs were diluted in HBS-EP buffer (BIAcore, Uppsala, Sweden). Binding data was generated by passing varying concentrations of the scFv antibodies (100 nM, 200 nM, 400 nM, 800 nM and 1600 nM) over the immobilized antigen. […] All SPR measurements were performed at a constant flow rate of 20 μL/min in HBS-EP buffer at 25° C. Each injected sample (100 μl) was in contact with antigen for 5 minutes. The dissociation was followed for 30 minutes. After each cycle, the surface of the sensor chip was flushed with HBS-EP buffer. Signals from the control channel coated with BSA were automatically subtracted. Kinetic constants were calculated according to the 1/1 Langmuir binding model using the BIAevaluation version 3.0 software (BIAcore).

koff [s⁻¹]	kon [M⁻¹ s⁻¹]	Binder
0.00297	21600	B1
0.00297	73300	B2
0.00401	29300	B3
0.00557	50900	B4
0.00652	54800	B5

target: T1, human CD16A-Fc^48R/158V fusion protein; test: SPR, steady state analysis (column Keq)
Protocol: as §1

Kd [nM]	Binder
106	B5

target: T2, NKp46-Fc (UniProt O76036 22-258, limits assumed); test: Western blot on NKp46-Fc
T2 construct: Negative control protein; also called NKp46-Fc control protein; not shown: Fc part, not described
T2 sequence (O76036 22-258 limits assumed): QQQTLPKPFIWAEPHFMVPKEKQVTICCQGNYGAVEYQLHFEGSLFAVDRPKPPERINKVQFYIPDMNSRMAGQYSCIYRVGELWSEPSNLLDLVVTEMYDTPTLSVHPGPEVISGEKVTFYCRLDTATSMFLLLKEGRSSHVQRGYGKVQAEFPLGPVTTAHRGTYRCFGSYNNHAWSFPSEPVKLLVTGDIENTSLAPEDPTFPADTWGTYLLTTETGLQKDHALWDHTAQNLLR
Protocol: For further characterization all of the anti-CD16A scFv were tested for binding in Western Blot on recombinant CD16A-Fc and NKp46-Fc.
The proteins were transferred on a nitrocellulose membrane by electroblotting. After staining with Ponceau S, the membrane was cut into strips of 5 mm width. Each nitrocellulose strip was individually incubated with scFv (4 μg/ml) in PBS, 0.1% tween, 2% skimmed milk. Detection was carried out with the anti-Penta His HRP-conjugate (1 μg/mL) using diaminobenzidine (DAB) as a peroxidase substrate. […] As an additional positive control, a goat anti-human IgG HRP-conjugate (0.16 μg/mL) was used for detection of the Fc portion of the fusion proteins.

binding result	Binder
no binding (tested: 4 µg/ml)	B1
no binding (tested: 4 µg/ml)	B2
no binding (tested: 4 µg/ml)	B3
no binding (tested: 4 µg/ml)	B4
no binding (tested: 4 µg/ml)	B5

target: T3, native CD16B on human polymorphonuclear cells (neutrophilic granulocytes) (human, UniProt O75015 17-200); test: flow cytometry on freshly isolated PMN; scFv, anti-(His)6 MAb, FITC goat anti-mouse IgG; MFI minus secondary reagents alone
T3 construct: whole, on cells; also called PMN; CD16B-positive granulocytes
T3 sequence (O75015 17-200): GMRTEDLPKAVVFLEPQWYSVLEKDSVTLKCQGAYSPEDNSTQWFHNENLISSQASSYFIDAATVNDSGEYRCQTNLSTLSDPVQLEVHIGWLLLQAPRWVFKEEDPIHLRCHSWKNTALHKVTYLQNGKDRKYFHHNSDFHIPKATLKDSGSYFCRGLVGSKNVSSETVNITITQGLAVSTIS
Protocol: Polymorphonuclear cells (PMN) and natural killer (NK) cells were isolated from peripheral blood from a healthy donor and used for flow cytometric staining and analysis. […] All scFv were used at a concentration of 50 μg/mL and were detected with 10 μg/mL anti-(His)₆ followed by 15 μg/mL FITC-conjugated goat anti-mouse IgG. The mean fluorescence intensities obtained from flow cytometric analysis were corrected by subtracting the fluorescence values from cell stainings with the secondary reagents alone and were plotted in the diagram.
Enrichment of NK cells was performed by negative selection as described above.

binding result	Binder
no binding (tested: 50 µg/mL)	B1
no binding (tested: 50 µg/mL)	B2
no binding (tested: 50 µg/mL)	B3
no binding (tested: 50 µg/mL)	B4
no binding (tested: 50 µg/mL)	B5

target: T1, human CD16A-Fc^48R/158V fusion protein; test: SPR, BIAcore 2000, CD16A-Fc immobilized on CM5, koff/kon
Protocol: as §1

Kd [nM]	Binder
138	B1
40.5	B2
137	B3
109	B4
119	B5

target: T4, human CD16B (NA-2 allele) on stably transfected HEK-293 cells (293/CD16B) (human, UniProt O75015 17-200); test: flow cytometry on 293/CD16B cells; scFv, anti-hexa His MAb 13/45/31-2, FITC goat anti-mouse IgG; MFI minus secondary reagents alone
T4 construct: whole, on cells
T4 sequence (O75015 17-200 N65S): as the sequence (O75015 17-200) above, with N49S counted along it
Protocol: (§2) The mean fluorescence intensities obtained from flow cytometric analysis were corrected by subtracting the fluorescence values from cell stainings with the secondary reagents alone, and plotted in the diagram.
(§3) For flow cytometric analysis, the following cell lines were used: BW and BW/CD16A transfectants were cultured as described previously. […] The transient transfections were performed using the calcium phosphate method as described in Example 1 and were used for flow cytometric staining and analysis two days after transient transfection. Flow cytometric staining and analysis was performed as essentially described before.

binding result	Binder
no binding (tested: 50 µg/mL)	B1
no binding (tested: 50 µg/mL)	B2
no binding (tested: 50 µg/mL)	B3
no binding (tested: 50 µg/mL)	B4
no binding (tested: 50 µg/mL)	B5

target: T1, human CD16A-Fc^48R/158V fusion protein; test: SPR, kinetic and steady state analysis
Protocol: as §1

fold improvement of affinity over parental clone 50NI [fold]	Binder
> 20	B5

target: T5, NKp46 extracellular domain fused to zeta chain, on transiently transfected HEK-293 cells (293/NKp46) (human, UniProt O76036 22-258; P20963 31-164); test: flow cytometry on 293/NKp46 cells; scFv, anti-hexa His MAb 13/45/31-2, FITC goat anti-mouse IgG; MFI minus secondary reagents alone
T5 construct: extracellular domain;domain: transmembrane and cytoplasmic domain; On the cell surface; also called NKp46-transfectants; pcDNA3-NKp46-zeta
T5 sequence (O76036 other isoform, or with tags, fused parts or gaps limits assumed): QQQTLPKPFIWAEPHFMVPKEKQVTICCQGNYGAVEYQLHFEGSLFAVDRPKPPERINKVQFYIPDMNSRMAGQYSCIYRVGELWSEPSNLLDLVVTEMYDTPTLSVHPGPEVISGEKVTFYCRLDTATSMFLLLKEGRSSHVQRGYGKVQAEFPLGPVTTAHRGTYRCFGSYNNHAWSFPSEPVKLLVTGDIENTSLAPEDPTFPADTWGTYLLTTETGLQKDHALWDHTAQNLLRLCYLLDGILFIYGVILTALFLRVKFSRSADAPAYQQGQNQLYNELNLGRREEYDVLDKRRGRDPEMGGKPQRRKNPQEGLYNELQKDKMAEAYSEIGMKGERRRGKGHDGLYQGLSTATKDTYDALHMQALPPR
Protocol: as §2, §3

binding result	Binder
no binding (tested: 50 µg/mL)	B1
no binding (tested: 50 µg/mL)	B2
no binding (tested: 50 µg/mL)	B3
no binding (tested: 50 µg/mL)	B4
no binding (tested: 50 µg/mL)	B5

target: T6, commercially available recombinant CD16B (Allele NA-2; BSA free; RD Systems) (UniProt O75015 17-200, limits assumed); test: ELISA on recombinant CD16B coated at 80 nM; scFv detected with anti-c-Myc-HRP (10 µg/ml)
T6 construct: also called recombinant CD16B-Fc
T6 sequence (O75015 17-200 N65S limits assumed): as the sequence (O75015 17-200) above, with N49S counted along it
Protocol: FIG. 3: ELISA on recombinant CD16A-Fc and CD16B. Recombinant CD16A-Fc and CD16B proteins were coated at 80 nM in 0.1 M NaHCO₃, pH 8.8. Wells were blocked with PBS, 2% skimmed milk. The binding of the scFv to the recombinant proteins and to gp34-Fc (negative control) was detected using an anti-c-Myc-HRP conjugate (10 μg/ml). […] Coated recombinant CD16B was directly detected by staining with an anti-His-HRP (1 μg/mL) and coating of the Fc-Fusion proteins was tested by an anti-human IgG-HRP conjugate (0.5 μg/mL). As HRP-substrate, 50 μL of TMB were used. After termination of the reaction with 50 μL 0.5 M H₂SO₄, absorbance was measured at 450 nm.
In order to generate further supporting data concerning the CD16A specificity of the scFvs, an ELISA was performed using the CD16A-Fc fusion protein (Example 1) and commercially available recombinant CD16B-Fc (Allele NA-2; BSA free; RD Systems). A gp34-Fc fusion protein was used as a negative control. The recombinant proteins were coated overnight at a concentration of 80 nM in 100 mM NaHCO₃ at pH 8.8.
Detection of scFv bound to the recombinant proteins was carried out by using an anti-c-myc-HRP conjugate (10 μg/ml). […] Binding to the recombinant CD16B was tested by directly staining with anti-His-HRP (1 μg/mL) and binding to the Fc-Fusion proteins was tested by an anti-human IgG-HRP conjugate (0.15 μg/mL).

binding result	Binder
no binding (tested: not given)	B1
no binding (tested: not given)	B2
no binding (tested: not given)	B3
no binding (tested: not given)	B4
no binding (tested: not given)	B5

From patent US20090214574A1 (AFFIMED, published 2009)
